Molecular target: T1, transforming growth factor beta 1 (UniProt P01137 279-390)
T1 construct: Transforming growth factor beta 1 (TGFβ1), the mature growth factor cut from its precursor; The source of the TGFβ1 is told only for the cell assays (PeproTech); also called TGFβ1; TGFβ; source: bought: PeproTech (cell assays)
Experiment: SPR; BIAcore 3000; which partner was immobilised and the conditions are not given
Details: both partners purified

T1 sequence (P01137 279-390): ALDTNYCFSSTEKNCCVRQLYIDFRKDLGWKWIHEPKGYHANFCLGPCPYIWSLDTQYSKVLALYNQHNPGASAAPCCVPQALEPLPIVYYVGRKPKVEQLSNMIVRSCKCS

Kd: 2320 nM
B1: Leucine-rich α2-glycoprotein (natural protein)
chain: LKECLILQSAEGSTVSCHGPTEFPSSLPADTVHLSVEFSNLTQLPAAALQGCPGLRELHLSSNRLQALSPELLAPVPRLRALDLTRNALRSLPPGLFSTSANLSTLVLRENQLREVSAQWLQGLDALGHLDLAENQLSSLPSGLLASLGALHTLDLGYNLLESLPEGLLRGPRRLQRLHLEGNRLQRLEDSLLAPQPFLRVLFLNDNQLVGVATGSFQGLQHLDMLDLSNNSLSSTPPGLWAFLGRPTRDMQDGFDISHNPWICDKNLADLCRWLVANRNKMFSQNDTRCAGPEAMKGQRLLDVAELGSL
